In patent US20030109416A1 (MOCHIDA PHARMACEUTICAL, published 2003):

Target: T1, extracellular domain of the human Fas ligand (produced in Pichia pastoris GS115) (human, UniProt P48023 103-281)
T1 construct: extracellular domain; also called human Fas ligand extracellular domain
T1 sequence (looked up): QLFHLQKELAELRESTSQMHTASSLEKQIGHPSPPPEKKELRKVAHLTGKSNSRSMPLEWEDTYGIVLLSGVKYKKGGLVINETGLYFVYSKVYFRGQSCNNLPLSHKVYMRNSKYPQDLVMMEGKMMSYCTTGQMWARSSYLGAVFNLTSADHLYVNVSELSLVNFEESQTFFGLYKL
Test: affinity chromatography on immobilized hFas-Fc

B1: hFas-Fc (chimeric protein of the extracellular domain of the human Fas antigen and Fc region of human IgG1) (Fc fusion, UniProt P25445 26-173, looked up)
chain: QVTDINSKGLELRKTVTTVETQNLEGLHHDGQFCHKPCPPGERKARDCTVNGDEPDCVPCQEGKEYTDKAHFSSKCRRCRLCDEGHGLEVEINCTRTQNTKCRCKPNFFCNSTVCEHCDPCTKCEHGIIKECTLTSNTKCKEEGSRSN
notes: extracellular domain; The construct limits are only in WO 95/13293; also called human Fas-Fc; product of plasmid pBF-Fc1; not shown: Fc region of human IgG1
- binding result: binds
